Measurements published in patent publication US12059458B2, “Peptides and combination of peptides and scaffolds for use in immunotherapy against renal cell carcinoma (RCC) and other cancers” (Immatics Biotechnologies GmbH, priority 2015, dated 2024).

These substances were tested against HLA-A*02:01 (Homo sapiens, UniProt P04439, D140Y/D185E/D98H/E176V/E277Q/G131W/G231S/I119V/I121R/I166T/I218V/L300P/L318F/N151K/N90K/P208A/P217A/Q86G/Q94H/R138H/R169H/T345S) (assay: MHC binding assay (UV-ligand exchange, beta2m ELISA, peptide exchange yield)). Details: binding to HLA-A*02:01 ranged by peptide exchange yield, β2m ELISA.
Text: Candidate peptides for T cell based therapies according to the present invention were further tested for their MHC binding capacity (affinity). The individual peptide-MHC complexes were produced by UV-ligand exchange, where a UV-sensitive peptide is cleaved upon UV-irradiation, and exchanged with the peptide of interest as analyzed. Only peptide candidates that can effectively bind and stabilize the peptide-receptive MHC molecules prevent dissociation of the MHC complexes. To determine the yield of the exchange reaction, an ELISA was performed based on the detection of the light chain (β2m) of stabilized MHC complexes. The assay was performed as generally described in Rodenko et al. (Rodenko et al., 2006).
96 well MAXISorp plates (NUNC) were coated over night with 2 ug/ml streptavidin in PBS at room temperature, washed 4× and blocked for 1 h at 37° C. in 2% BSA containing blocking buffer. Refolded HLA-A*02:01/MLA-001 monomers served as standards, covering the range of 15-500 ng/ml. Peptide-MHC monomers of the UV-exchange reaction were diluted 100 fold in blocking buffer. Samples were incubated for 1 h at 37° C., washed four times, incubated with 2 ug/ml HRP conjugated anti-β2m for 1h at 37° C., washed again and detected with TMB solution that is stopped with […]. Absorption was measured at 450 nm. Candidate peptides that show a high exchange yield (preferably higher than 50%, most preferred higher than 75%) are generally preferred for a generation and production of antibodies or fragments thereof, and/or T cell receptors or fragments thereof, as they show sufficient avidity to the MHC molecules and prevent dissociation of the MHC complexes.

| Substance | Peptide exchange (MHC class I binding score) |
| --- | --- |
| 4 (FLSQDIITV; listed as Homo sapiens) [compound 4] | +++ (≥50 = +++) |
| 5 (YLYPNLTRL; listed as Homo sapiens) [compound 5] | ++ (≥20% = ++) |
| 8 (GLASFKSFL; listed as Homo sapiens) [compound 8] | ++ (≥20% = ++) |
| 10 (KLLQNNYGL; listed as Homo sapiens) [compound 10] | ++ (≥20% = ++) |
| 11 (FIQTEAPKEV; listed as Homo sapiens) [compound 11] | ++ (≥20% = ++) |
| 12 (ALDPSGNQLI; listed as Homo sapiens) [compound 12] | ++ (≥20% = ++) |
| 13 (KIMAQILTV; listed as Homo sapiens) [compound 13] | +++ (≥50 = +++) |
| 14 (ALLTETIFL; listed as Homo sapiens) [compound 14] | ++ (≥20% = ++) |
| 17 (ILAQQVHAL; listed as Homo sapiens) [compound 17] | +++ (≥50 = +++) |
| 19 (LLDPGSLQL; listed as Homo sapiens) [compound 19] | ++ (≥20% = ++) |
| 21 (RLIQGDQILSV; listed as Homo sapiens) [compound 21] | ++ (≥20% = ++) |
| 23 (YIQEVVQYI; listed as Homo sapiens) [compound 23] | +++ (≥50 = +++) |
| 24 (FTLGTTVFL; listed as Homo sapiens) [compound 24] | +++ (≥50 = +++) |
| 25 (LLVPAHLVAA; listed as Homo sapiens) [compound 25] | ++ (≥20% = ++) |
| 27 (SLSDLLVSL; listed as Homo sapiens) [compound 27] | +++ (≥50 = +++) |
| 28 (FIADLVVGL; listed as Homo sapiens) [compound 28] | ++ (≥20% = ++) |
| 30 (QLFYTKIFL; listed as Homo sapiens) [compound 30] | ++ (≥20% = ++) |
| 31 (VLFGLDPAVIKV; listed as Homo sapiens) [compound 31] | +++ (≥50 = +++) |
| 33 (FIADVVEKI; listed as Homo sapiens) [compound 33] | ++ (≥20% = ++) |

| Substance | Peptide exchange (MHC class I binding score) |
| --- | --- |
| 35 (VLHSLQTQL; listed as Homo sapiens) [compound 35] | ++ (≥20% = ++) |
| 37 (VLAPVILML; listed as Homo sapiens) [compound 37] | ++ (≥20% = ++) |
| 38 (VLLDTILQL; listed as Homo sapiens) [compound 38] | +++ (≥50 = +++) |
| 39 (YLLNLNHLGL; listed as Homo sapiens) [compound 39] | +++ (≥50 = +++) |
| 40 (YIQEHLLQI; listed as Homo sapiens) [compound 40] | +++ (≥50 = +++) |
| 41 (GLLKTLQKL; listed as Homo sapiens) [compound 41] | ++ (≥20% = ++) |
| 42 (VILDTGTIQL; listed as Homo sapiens) [compound 42] | ++ (≥20% = ++) |
| 43 (YLKDELDEL; listed as Homo sapiens) [compound 43] | +++ (≥50 = +++) |
| 44 (ALFSFVTAL; listed as Homo sapiens) [compound 44] | +++ (≥50 = +++) |
| 45 (ALLGIPLTL; listed as Homo sapiens) [compound 45] | +++ (≥50 = +++) |
| 46 (GLSEVLVQI; listed as Homo sapiens) [compound 46] | +++ (≥50 = +++) |
| 47 (TLAEVRAVQEI; listed as Homo sapiens) [compound 47] | +++ (≥50 = +++) |
| 48 (VVASNIMEV; listed as Homo sapiens) [compound 48] | ++ (≥20% = ++) |
| 49 (VLIVEVPGV; listed as Homo sapiens) [compound 49] | +++ (≥50 = +++) |
| 50 (SLSDHIVLL; listed as Homo sapiens) [compound 50] | ++ (≥20% = ++) |
| 51 (NLWPMILTL; listed as Homo sapiens) [compound 51] | +++ (≥50 = +++) |
| 52 (SILDAVQRV; listed as Homo sapiens) [compound 52] | ++ (≥20% = ++) |
| 53 (FLLEIRQTL; listed as Homo sapiens) [compound 53] | ++ (≥20% = ++) |
| 54 (ALVAKGLVQA; listed as Homo sapiens) [compound 54] | ++ (≥20% = ++) |

| Substance | Peptide exchange (MHC class I binding score) |
| --- | --- |
| 55 (YLALILPVL; listed as Homo sapiens) [compound 55] | ++ (≥20% = ++) |
| 56 (ILMDFSNSM; listed as Homo sapiens) [compound 56] | +++ (≥50 = +++) |
| 57 (SLQKEILYL; listed as Homo sapiens) [compound 57] | ++ (≥20% = ++) |
| 58 (FLVDFEQSHL; listed as Homo sapiens) [compound 58] | ++++ (≥75% = ++++) |
| 59 (SLKNNVVSV; listed as Homo sapiens) [compound 59] | +++ (≥50 = +++) |
| 60 (ILWKDIEYV; listed as Homo sapiens) [compound 60] | +++ (≥50 = +++) |
| 61 (SLMGILLRI; listed as Homo sapiens) [compound 61] | ++ (≥20% = ++) |
| 62 (VLAGPAFLVQL; listed as Homo sapiens) [compound 62] | +++ (≥50 = +++) |
| 63 (GLIEDHFDVTV; listed as Homo sapiens) [compound 63] | ++ (≥20% = ++) |
| 64 (LLAASVALA; listed as Homo sapiens) [compound 64] | ++ (≥20% = ++) |
| 65 (IIYGGSVTGA; listed as Homo sapiens) [compound 65] | ++ (≥20% = ++) |
| 66 (TLLKTIIKV; listed as Homo sapiens) [compound 66] | ++ (≥20% = ++) |
| 67 (LLDVLAPLV; listed as Homo sapiens) [compound 67] | ++ (≥20% = ++) |
| 68 (YVLTQPPSV; listed as Homo sapiens) [compound 68] | ++ (≥20% = ++) |
| 69 (ILADLLPSL; listed as Homo sapiens) [compound 69] | ++ (≥20% = ++) |
| 70 (SLTALRLLL; listed as Homo sapiens) [compound 70] | ++ (≥20% = ++) |
| 71 (ALDGHLYAV; listed as Homo sapiens) [compound 71] | +++ (≥50 = +++) |
| 72 (YSLEKVFGI; listed as Homo sapiens) [compound 72] | ++ (≥20% = ++) |
